In assay [1] the target is M protein M3.22 (Streptococcus pyogenes). The assay can be described thus: radioligand binding; 250 µl of streptococci (10^8 bacteria per ml in PBS with 0.05% Tween 20), before and after hyaluronidase treatment, incubated 45 min with 30 ng (100,000 cpm) of 125I-labelled collagen IV; washed, radioactivity of the pellet counted; cut-off 20% bound ligand.
In assay [2] the target is M protein stG120.1 (Streptococcus dysgalactiae subsp. equisimilis). Described as above.
The target in assay [3] is human collagen IV (immobilized, SPR) (human) (UniProt P02462). Briefly: SPR; human collagen IV immobilised (400 RU); recombinant M proteins injected for 2 min at 60 µl/min; apparent constants, Langmuir model for 1:1 interactions (BiaEvaluation 3.0).

A value given as a limit tells only on which side of the number the result lay.

Results on four substances are retold here after PMC3256231.

On to “125I-labelled collagen IV (from human placenta, Sigma-Aldrich) (from UniProt P02462 173-1669; P08572 184-1712) (complex)”, for which the percent of the added collagen IV bound (% of the added collagen IV) in assay [1] is over 20. Besides, the percent bound ligand (% bound ligand) in assay [2] came to 56.
In the case of “recombinant M protein M31.5 (natural protein)”, the Kd in assay [3] stood at 0.6 nM.
As to “recombinant M protein M55 (from UniProt Q54840 1-550) (natural protein)”, the Kd in assay [3] is 5 nM.
As to “recombinant M protein stG2078 (natural protein)”, in assay [3], the SPR response is under 4 RU.
